What was measured:
[1] = Labeled ligand binding to bare silica beads (control for non-specific binding); conditions: silica beads devoid of membranes; FIG. 2C
Method: (§1) The binding of transferrin to its receptor was studied for ligand/receptor interactions, present endogenously in membrane-coated particles derived from CHO cell membranes (Example 1). Freshly-prepared membrane-coated particles were resuspended in 1 ml of binding buffer (10 mM Tris-HCl pH 7.4, 100 mM NaCl). Beads were subsequently pelleted and resuspended in 1 ml of blocking buffer (0.1% w/v casein in binding buffer), and incubated at room temperature for 15 minutes with rotation. Beads were pelleted and resuspended in 980 μL of binding buffer. At this time, any inhibitors or antagonists (e.g. excess of unlabeled transferrin) could have been added for a pre-incubation step. ALEXA FLUOR® 488-conjugated human holotransferrin was added to the membrane-coated particles at a final concentration of 10 μg/ml, followed by incubation at room temperature for 15 minutes with rotation. Following the incubation with transferrin, the beads were washed twice with binding buffer in preparation for viewing using fluorescence microscopy (same microscope apparatus as described in Example 1). The accessibility of membrane proteins (in this case the transferrin receptor) to interact with various ligands and test agents (in this case transferrin) is shown by the results (see FIGS. 2A-2E).

transferrin receptor = target: T1, transferrin receptor (Cricetulus griseus, UniProt Q07891); test: Ligand binding and displacement assay on membrane-coated particles (fluorescence microscopy); design: species or system Chinese Hamster
T1 construct: present endogenously in membrane-coated particles derived from CHO cell membranes; endogenous in cells; host or cells: CHO cell membranes deposited on silica microspheres
Method: as §1

T1 sequence (Q07891 whole entry): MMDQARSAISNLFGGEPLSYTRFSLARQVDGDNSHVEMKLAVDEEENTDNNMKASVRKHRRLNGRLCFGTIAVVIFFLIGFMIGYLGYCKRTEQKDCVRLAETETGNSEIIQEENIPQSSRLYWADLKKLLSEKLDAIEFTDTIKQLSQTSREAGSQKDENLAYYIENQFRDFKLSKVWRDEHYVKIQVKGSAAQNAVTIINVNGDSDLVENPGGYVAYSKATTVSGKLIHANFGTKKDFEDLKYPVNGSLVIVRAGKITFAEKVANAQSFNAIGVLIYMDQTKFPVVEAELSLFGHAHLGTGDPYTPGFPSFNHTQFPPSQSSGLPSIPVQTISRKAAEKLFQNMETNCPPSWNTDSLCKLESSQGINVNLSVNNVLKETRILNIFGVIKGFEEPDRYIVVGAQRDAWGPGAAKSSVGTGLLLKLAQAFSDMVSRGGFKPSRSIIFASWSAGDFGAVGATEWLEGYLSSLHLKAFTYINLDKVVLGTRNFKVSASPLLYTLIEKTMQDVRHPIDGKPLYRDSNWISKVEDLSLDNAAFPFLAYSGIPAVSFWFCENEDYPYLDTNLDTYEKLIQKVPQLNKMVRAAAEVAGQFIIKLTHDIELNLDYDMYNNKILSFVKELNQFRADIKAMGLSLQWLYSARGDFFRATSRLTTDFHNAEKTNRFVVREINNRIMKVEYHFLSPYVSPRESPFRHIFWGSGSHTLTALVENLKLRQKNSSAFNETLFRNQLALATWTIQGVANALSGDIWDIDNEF

With “fluorescently-labeled transferrin: ALEXA FLUOR® 488-conjugated human holotransferrin, labeled ligand of the transferrin receptor” the “interaction of fluorescently-labeled transferrin with bare silica” value [1] was “does not interact appreciably” and the “binding of fluorescently-labeled transferrin to the membrane-coated particles” value (transferrin receptor; endogenously-expressed transferrin receptor, CHO cell membranes on silica beads, 10 μg/ml, room temperature, 15 minutes, FIG. 2A) was “binds efficiently”.

For “unlabeled transferrin: unlabeled transferrin used in excess as competitor of labeled transferrin binding”, the “competition of labeled transferrin binding” value (transferrin receptor; 100-fold molar excess of unlabeled transferrin, CHO membrane-coated particles, FIG. 2B) was “readily competed away”.
